Consider 19 sequences from a protein production outcome set (Wang et al. 2014).

A short description of the series: label from the status in PepcDB records.

With “MSDTNSGGGRQAASGPAPRGRLPFRRRVALVAVARPLIVTVGLVTAYYLLPLDERLSAGTLVSLVCGLLAVLLVFCWEVRAITRSPHPRLRAIEGLAATLVLFLVLFAGSYYLLGRSAPGSFSEPLNRTDALYFTLTTFATVGFGDITARSETGRILTMAQMTGGLLLVGVAARVLASAVQAGLHRQGRGPAASPRSGAAEEPEAGP”, the protein production entry is given as “failed”.

In the case of “MSDTRRCVVIPAVKKNAVIPDQLVKRLAGVTLIQRAIDTAKALAPGDDIVVVTDSQEIALICERNGVRHVCNPGLHLATLDIVRELRGVLEDLARSYGHIVIYRASCPLLTADDIEDAYATFLREGADCLVTVKSVRHRVWEKRNGGLDALLSQDETEPSIYVESKALVMLDASALTRGEVRKVVPYFLNDRAIEINSYQDWWICEKLLCRKHIVFVVAGYPAIGMGHIFRALMLAHEVADHRITFLCTRESELAASNIAARDYRTRVQQGDDLAADVLSLRPDLVINDILNTDADYVGRLREAGVRVVNFEDEGPGAHLADLVVNALYEEKVDDPRFLHGHRFFCLRDEFVNGVRNDYRDPVRCVLVTFGGTDHSDFSRGTLDAIEPLCRERGITIRLVAGPGYAHKDAMQEHVERLGSPLVEFTYATNVMSRMMEGADLAICSAGRTVYELAHMRVPAIVMAHHEREGRHTFARGRNGFAYLGVMEHFDGAKLTRVFTQLLDAGNRRRLFDRQARFDFIRNKADVVRRITALLDDTPAPENA”, the protein production entry is on record as “failed”.

As for “MSDVAATAQRQQVRQQGLILGLVTLPFRCFGVLCGSLFLCIVIECIGMALFWPDQGWRHAQAMLGHELDQLSDYFVRSALVQEPGRTAHQWIQHAYEWAFVRSGLLEWMQDASRQARAGASGRPWSLPQVLATVSMHAEGYLIAAAYTVLLFLVRLLMLCLTLPLFALAAFVGLVDGLVRRDIRRFGAGRESGFLYHRARASLVPLAVLPWVTYLALPVRVHPVVILLPSAVLLGVAVDIAAGSFKKYL”, the protein production result is recorded as “failed”.

With “MSDVTGDLAAVSEAKGGSDAARISEVKAWLTSQFEAVGKEVPNFEYTHRSITHLYNLATASQAKSQAATIVANDFRLKASEYRAQAARIREILESAGMSQESLPSNVVSSAQVLANVANLLNIRDTELSRILAQLEDDVVPCESQMENWKTNLEVMAVKEEQYIQQYKKYEMLLNRVGYTPKISHRELVEMAEHRKELDKMTKPVLDTLRSYQDLPPDKALAALAIEDKKRQFTAAEKYLEEVLQSALETNDE”, the protein production result is “failed”.

With “MSEATILVSGATGRTGGAAIDELLKSGKQVRAYVRSNDDRAAAFRKRGVEVAIGDFTGIDDIRAAMEGVTSAYFLHPIAPGIIGAAAYFAQAAKEAGVSAIVNMSQISARRESASHAAQDHWISERVFDWSGVATTHLRPTFFADWLVYPHFAKEIWAKKKIEFPFENGRHAPIATDDQGRVIAHILANPEGHGGKTYTLTGPIELNHTEIAAAMSEVLGAKIEYAPTSIDEFRNKMENVYKFPPFLTQHLVEVAQNYRDGIFSGANDAVEKITGTPALSVQQFIAQNRAVFA”, the protein production entry was “failed”.

Regarding “MSEEIVLKAGGKIYQGWTKIGITRSLEAMSGAFDLEMTYKFLGNDAQYKAFIEPIKQGQACTVDIGGERVITGYVDDWVPSYDESTITISVSGRDKTADLVDCSIDYPSGQFNNQTLTQIADIVCKPFGIKVIVNTDVGEPFQRIQIEQGETPHELLARLAKQRGVLLTSDTFGNLVITRASKTKAGVSLILGDNVKAARGRFSWRQRFSKFTIKAAGAAHGQWDSAGLPTVGGIKADVTDSEIGRYRPLIIVNEEVTTAEGAAKRGQWERQRSIGKSNMAEYTVTGWRIPQTGKLWNINTLVPVIDEIMGLDEEMLIASILFSEDDAGRLAVISVVRPDAMDIPAQIVKDTKLGGSTW”, the protein production entry is “not failed”.

Consider “MSEFLALFSAMWKESWRDKISTFFSIAFPVMFLLIFGFLFGGSGNSVKTAVVTVDYDLSDFGDVYTSLEELKGYYHEVAVVEKERIIFIRNTTDEYYQSLLDSWEISLKNKVTRLLNGLNPVIMVKKEVLKTARELTSFDYTLTGVIAVSLLSIGLFGTVDVFSRYRERGFLKRLKATPVGNFSFVFGLISARMFYGILSTALIMLLGTLIFKASYELNVFLFLISVVSSVLSFIALGALISILFKKSDVATDAAVILFTIMMFLTGVYFPVSFLPDYLRVVSYFLPVKYGVELIRYSLGFEIFPFSRYLITAVIMFLAGLMFVFYTASLVLRKED”, for which the protein production result is on record as “failed”.

On to “MSEGSNVLVSIILVNYNGADILPDCLNSIDKFISKDNCEILLVDNASQDNSYELVAQDFPDVKIVRLPKNYGFGAGNNAGAKIAKGKFLLLLNTDTILTTNILPHLIDLMRENPDVGIIGTKLVFPDETFQISFAYTIGIKGEYKSRKLHEYAEDKSKLNSLEQEFNTIKEVDIVVGAALFIRADLFHSVGGFDEKFFIYFEDADLCRRVQNQGYKILYTPQVSLIHIRGHSMKKNANATVVEYRRSQLYYYKKHCPVWERIILRIYLFAKFLPEFLATRNPYSLEIIKLLFVIA”, for which the protein production result is given as “failed”.

Regarding “MSEIDANYRALAQQVADKVAGRVIALDRLPESLLTAYRSLCDELLADRDGRFTRAWDQLPDSASSLFERCVFHGFYLANAWIQLSIVARDISELQDTDEAIAEQEYSGLYVRVAEAALKESVKKLKKARTDRSMYNSMREVMGI”, the protein production entry is reported as “not failed”.

As for “MSEIIIQNLISPVVLFFLLGIIAATFKSDLQFPKGLTEALSMYLLIAIGIKGGIELSHYHLEAVIGPVIGTIFLGMLIPVIVLMITRLFMKVDLKNSIALAATYGSTSIVTYGAAVSFLEKSGTTYEGFMNAMVVLKESPAILVSLLLLSIIERQQAVPTTLSSKRVGIVSGHQGLIDKEVLKESFFGKSIILLLGSLIIGLVVGERAIPMVQPLFIDLYQSVLILFLLYMGLTVGERLPEVKKHGIKLILFGVLTPILLGALGVLVGTLAGLSVGGATLMGILAGSASYIAAPAALRTSVPEANPSIYLGLSLGVTFPFNLIFGIPLYFEFAKLLH”, the protein production entry was “failed”.

As for “MSELARLRQKVSDGLGLATPAADPADKTTRLANEEHASDVRAVALYVAISLSVGAFAAALIALAVPYAVTVVLACFFGAVLMGALFYALFGKSFPLPGTLPADYSDVRLRQTQNRSLIAEMQESMGDIVVIRNMNRRIVEANRVFREMTGCTSPEGLSCEEIGIAFRPGDRVHAYDVEIATPFGQRIFSWHDVVTRDLASSRLMISSIARDVTEERLALAEREDARLRAEKADAEKARLLATVSHEIRLPLSGMLGMNHLLSQTKLNQEQRNYLDGMKQSGQSLVQLVEDLLDYSTMEAGRFRLNPRAENLRRLIESIVEMLAHRAHEKGIEIASFVTPDVPDYLDFDPARLRQVLFNLIGNAVKFTQVGGVVIRARMVDGELQITVEDTGPGMSEAEQARIFGEFEQAGPLSQRSAGTGLGLAISARIVREFGGNLTVSSRRGEGSTFKLVFRPGRAPAEMPDSGRSHCLQHTNVLLIAPEGVAAAVTMEAIEAFGGKCILIHQPEDLDRLRNEPVSRTADLTDIIVDLRISALFRDALRDWPQQTIRRTLLVSPEERASTTHASFDAWLIRPLREKSLIDVLCGRLRGIERRDAINDNHPDVGFSSRVVERASGVEILVAEDDAVNARIIRAVLEKSGYIVRAVDNFQALQQSVASGASRLPNLIVSDLNMPGGEGLDVLPDLLGKLKDERNIPVIILSGDAGAGTAEILLKAGAGAVLAKPADPRRLVEEIRRLLEAKRVLSS”, the protein production entry was “failed”.

Regarding “MSELIAQLLVYIKGIWKYRWASVATAWTVAIAGWFFVYQMPDNYQASARIYVDTQSILRPLMAGMTVSPNPDQQITIMSRTLISRPNVERIIRMVDLDIKITDDSAREKLVTTLMKDIKLSTTGSDNIFMISYDNKDPRLAKDIVQSLLTIFVEGGLEGKKQDSASALRFIDQQIAAYEEKLVAAEAALTAFKQKNIGFLPGQGGDYYSQLVSAAEELEKARLTLLEAEQARDAVKKQITGDEPVLLFEVGEVSPQSIVNPEIDSRIQALNTNLDNLMLNFTDQHPDVVATKRLIAQLEERKVEEAKLAGTVNNRGRNYDPMMQQLNIALAESEAQVASMKARVAEYEARFERLKSMSNTVPAVEVEMQQLNRDYNVNKANYEKLLERRASAEISGELTSTSGLMSFRIVDPPTVPEAPSGPDRKKFFTLVLIGALAGGIGFAFIISQIRPTFHSQSTLRELTGLPILGTIPMVWTEQQKLKDKRKIYAFGISLLMLMACYVVLMIYVKPHGMTAA”, the protein production entry was “failed”.

For “MSELITYHAEDGIATLTLNNGKVNAISPDVITAFNAALDRATEERAVVIITGQPGILSGGYDLKVMTRGPQEAISLVTAGSTLARRLLSHPFPVVVACPGNAVAKGAFLLLSADYRIGVEGPYKVCLNEVQIGMTMHHAGIELARDRLRRSAFHRSVINAEVFDPQGAVDAGFLDKVVPAEQLQEAAMTAARELKKLN”, the protein production result was “failed”.

As to “MSENNSNREPQKDVGKGNNSLMRWVGRLVLFAIILAITSFLTPGFSIRGFWTFVLASVVITGLDYLVESFMKVDASPFGKGLKGFIISAVIIYLAQFLVPNMRVSIIGAILASLVIGVIDAIIPSRSM”, the protein production entry is “failed”.

In the case of “MSENQDELLHYRLSLRLGPVHARQRLGIERETEARVFGRDKRSFHLENLTNAPKLIRFCLKAVGLLRRAQANSLKLTTEHNTFVLPDLPSAFEGFRILHLTDLHVDMDEANLQAVIRQIAPLDYDLCVLTGDYRQRTWGPVDDALDGMARLRLAIHGDAYAVLGNHDSVRMVPALEDMGYRLLMNEMVPLERGDSRLYLAGVDDAHYYKVHNLHRAGDDIPAGGISLLLSHTPEIWREAAHAGYDLFLCGHTHGGQLCLPGGIPLTLDSDCPRRLGRGLWQVNGMQGYTSPGAGTSVLNVRLNCPPEVTIHTLTRGPLEHHHHHH”, the protein production result is reported as “failed”.

Regarding “MSEPFSVPVTVRGYETDTQGHLNQSVYLNYAEHARWSLLQAAGIRQADLVARGVGPVALETTIRFQRELLAGDEVTVTCAFEWGTGKTFRIRQLVTKADGTVAAEIEAVGGLMDLGERRLVPDPRQRFKELAARPELFGLLEHHHHHH”, the protein production result is on record as “failed”.

Consider “MSEPIDILIAGAGIGGLSCALALHQAGIGKVTLLESSSEIRPLGVGINIQPAAVEALAELGLGPALAATAIPTHELRYIDQSGATVWSEPRGVEAGNAYPQYSIHRGELQMILLAAVRERLGQQAVRTGLGVERIEERDGRVLIGARDGHGKPQALGADVLVGADGIHSAVRAHLHPDQRPLSHGGITMWRGVTEFDRFLDGKTMIVANDEHWSRLVAYPISARHAAEGKSLVNWVCMVPSAAVGQLDNEADWNRDGRLEDVLPFFADWDLGWFDIRDLLTRNQLILQYPMVDRDPLPHWGRGRITLLGDAAHLMYPMGANGASQAILDGIELAAALARNADVAAALREYEEARRPTANKIILANREREKEEWAAASRPKTEKSAALEAITGSYRNQVERPRLEHHHHHH”, for which the protein production result was “not failed”.

As for “MSEQKEDLFKPVGEAAAEVEDESIAEQNKANDGVKLTGAQDAMGHPVQEIESLCMNCGKNGTTRLLLTSIPYFREIIIMSFDCPHCGFKNCEIQPASQIQEKGSRYVLKVECREDFNRQVIKSETATCKFVELDIEIPAKRGQLTTVEGLLSEMIDDLSQDQEMRKSIDEALYKKIDDFIQKVKSYINCEPNTIPITFILDDPAGNSWIEYKPGEPQHKWSHTQYVRTDEQNVQVGIITRDQLEQRRQEQLKQLANRERNPSESVKVGSANPQFLSDATDIENFNNEVQTFRASCPSCTQECETHMKPVNIPHFKEVIIMSTVCDHCGYKSNEVKTGGAIPDKGRRITLYCDDAADLSRDILKSETCSMVIPELHLDIQEGTLGGRFTTLEGLLRQVYEELESRIFTQTSDSMDEATKARWVEFFAKLKEAIAGKVKFTVIMEDPLAGSYIQNVYAPDPDPNMTIEDYERTKEQNEDLGLSDIKVE”, the protein production entry was “failed”.

As for “MSERNLPLEYHPFPAILPKSATVAMLGTFPPTSEKRCMEFHYPNFQNDMWRIMGLLFYKNLDHFRVDQEKRFDPVRIEAFLREKGIALCSSAQTAIRLKGNASDKDLKIIDAIDMQALLTELPQLKWLFTTGGLATETLLSLLPEKSKLPKTNEWINYPYTTDRTLYLYRLPSTSRAYPLSLAKKVEAYRQFFVRVGVL”, the protein production result is reported as “failed”.
